Source: PMC4599368 (Cell reports, 2015)

B2: EBOV NP residues 25–457 ([change]) (domain or fragment)
chain: LTAGLSVQQGIVRQRVIPVYQVNNLEEICQLIIQAFEAGVDFQESADSFLLMLCLHHAYQGDYKLFLESGAVKYLEGHGFRFEVKKRDGVKRLEELLPAVSSGKNIKRTLAAMPEEETTEANAGQFLSFASLFLPKLVVGEKACLEKVQRQIQVHAEQGLIQYPTAWQSVGHMMVIFRLMRTNFLIKFLLIHQGMHMVAGHDANDAVISNSVAQARFSGLLIVKTVLDHILQKTERGVRLHPLARTAKVKNEVNSFKAALSSLAKHGEYAPFARLLNLSGVNNLEHGLFPQLSAIALGVATAHGSTLAGVNVGEQYQQLREAATEAEKQLQQYAESRELDHLGLDDQEKKILMNFHQKKNEISFQQTNAMVTLRKERLAKLTEAITAASLPKTSGHYDDDDDIPFPGPINDDDNPGHQDDDPTDSQDTTIPDV

How the values were obtained:
[1] = target: B2; assay: ITC
SEC = target: the molecule itself; assay: SEC

## MTTRTKGRGHTAATTQNDRMPGPELSGWISEQLMTGRIPVSDIFC [EBOV VP35 peptide 1–45]
[1]
  fold reduction in binding affinity relative to NPBP: 1.5 fold

## GWISEQLMTGRIPVSDIFCDIE [EBOV VP35 peptide 27–48]
[1]
  fold reduction in binding affinity relative to NPBP: 6.5 fold

B1: EBOV VP35 1–168 (domain or fragment)
chain: MTTRTKGRGHTAATTQNDRMPGPELSGWISEQLMTGRIPVSDIFCDIENNPGLCYASQMQQTKPNPKTRNSQTQTDPICNHSFEEVVQTLASLATVVQQQTIASESLEQRITSLENGLKPVYDMAKTISSLNRVCAEMVAKYDLLVMTTGRATATAAATEAYWAEHGQ
[1]
  binding result: binds

## B2
SEC
  binding result: binds
